Assay results: patent US6673915

Target: human CCR2b with the FLAG epitope at the extreme amino-terminus, stably expressed on HEK-293 cells (Example 10B) (human), P41597
Test: cell-based or functional assay

Sequence of human CCR2b with the FLAG epitope at the extreme amino-terminus, stably expressed on HEK-293 cells (Example 10B) (human), P41597 (P41597 whole entry): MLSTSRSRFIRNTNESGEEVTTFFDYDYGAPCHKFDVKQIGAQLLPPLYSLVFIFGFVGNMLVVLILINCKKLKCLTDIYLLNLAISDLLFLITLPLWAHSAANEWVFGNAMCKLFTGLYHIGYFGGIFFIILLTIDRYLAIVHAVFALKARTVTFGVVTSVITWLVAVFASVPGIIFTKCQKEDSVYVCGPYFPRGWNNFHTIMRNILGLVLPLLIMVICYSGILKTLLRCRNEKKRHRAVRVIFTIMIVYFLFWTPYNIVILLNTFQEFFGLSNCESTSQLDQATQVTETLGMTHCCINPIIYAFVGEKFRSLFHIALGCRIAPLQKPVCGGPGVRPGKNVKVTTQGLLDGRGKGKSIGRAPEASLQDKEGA

EC50 of intracellular calcium flux: 5 nM
B1: murine MCP-5, predicted mature 82 amino acid protein beginning with the N-terminal glycine (E. coli, PeproTech), Q62401 23-104 (ligand)
chain: GPDAVSTPVTCCYNVVKQKIHVRKLKSYRRITSSQCPREAVIFRTILDKEICADPKEKWVKNSINHLDKTSQTFILEPSCLG
